Data taken from US20250049939A1, “NOVEL FLT3 ANTIBODIES AND ANTIBODY-DRUG-CONJUGATES BASED THEREON, THERAPEUTIC METHODS AND USES THEREOF IN COMBINATION WITH TYROSINE KINASE INHIBITORS” (TUBULIS GmbH, priority 2021, published 2025).

B1: 2F12: chimeric anti-FLT3 antibody from rat; VH SEQ ID NO: 7, VL SEQ ID NO: 8 (antibody, V domains shown)
VH: EVKLEESGGGLVQPGGSMKLSCVASGFTFSNYWMNWVRQSPEKGLEWVAQIRLKSDNYATHYAESVKGRFTISRDDSKDSVYLQMNNLRAEDTGIYYCAVSLARSDYWGQGTTLTVSSA
VL: DVVMTQSPPSLSASLGDKVTITCQASQNINKYIAWYQQKPGKAPRLLIRYTSTLESGTPSRFSGSGSGRDFSFSISNVESEDIASYYCLQYVNLPRTFGGGTKLELKR
modifications: Clone 2F12, heavy chain variable region without a signal seqeunce; Clone 2F12, light chain variable region without a signal seqeunce
B2: 19H5: chimeric anti-FLT3 antibody from rat; VH SEQ ID NO: 17, VL SEQ ID NO: 18 (antibody, V domains shown)
VH: MVQPSQTLSLTCTVSGFSLTSYNVNWVRQPPGKGLEWIGAMWRGGGTDYNPALKSRLSISRDTSKSQVFLKMNRLQTEDTAIYFCTRGFGDYWGQGVMVTVSSA
VL: DVQMTQSPSSMSASLGDRVTFTCQASQDIGNNLIYFQQKPGKSPRRMICCATNLAHGVPSRFSGSRSGSDYSLTLVSLESEDVADYHCLQYEHYPRTFGGGTKLELKR
modifications: Clone 19H5, heavy chain variable region without a signal seqeunce; Clone 19H5, light chain variable region without a signal seqeunce

What was measured:
[1] = molecular target: T1, Ba/F3 cells expressing human wildtype FLT3 (Homo sapiens, UniProt P36888); assay: Temperature induced internalization in Ba/F3-FLT3, flow cytometry; assay type: cell-based; conditions: 30 min at 37° C. compared to 4° C.
T1 construct: expressed in transfected cells; host or cells: Ba/F3 cells, retrovirally transduced with MSCV-IRES-YFP (pMIY) vector
T1 sequence (P36888 27-993): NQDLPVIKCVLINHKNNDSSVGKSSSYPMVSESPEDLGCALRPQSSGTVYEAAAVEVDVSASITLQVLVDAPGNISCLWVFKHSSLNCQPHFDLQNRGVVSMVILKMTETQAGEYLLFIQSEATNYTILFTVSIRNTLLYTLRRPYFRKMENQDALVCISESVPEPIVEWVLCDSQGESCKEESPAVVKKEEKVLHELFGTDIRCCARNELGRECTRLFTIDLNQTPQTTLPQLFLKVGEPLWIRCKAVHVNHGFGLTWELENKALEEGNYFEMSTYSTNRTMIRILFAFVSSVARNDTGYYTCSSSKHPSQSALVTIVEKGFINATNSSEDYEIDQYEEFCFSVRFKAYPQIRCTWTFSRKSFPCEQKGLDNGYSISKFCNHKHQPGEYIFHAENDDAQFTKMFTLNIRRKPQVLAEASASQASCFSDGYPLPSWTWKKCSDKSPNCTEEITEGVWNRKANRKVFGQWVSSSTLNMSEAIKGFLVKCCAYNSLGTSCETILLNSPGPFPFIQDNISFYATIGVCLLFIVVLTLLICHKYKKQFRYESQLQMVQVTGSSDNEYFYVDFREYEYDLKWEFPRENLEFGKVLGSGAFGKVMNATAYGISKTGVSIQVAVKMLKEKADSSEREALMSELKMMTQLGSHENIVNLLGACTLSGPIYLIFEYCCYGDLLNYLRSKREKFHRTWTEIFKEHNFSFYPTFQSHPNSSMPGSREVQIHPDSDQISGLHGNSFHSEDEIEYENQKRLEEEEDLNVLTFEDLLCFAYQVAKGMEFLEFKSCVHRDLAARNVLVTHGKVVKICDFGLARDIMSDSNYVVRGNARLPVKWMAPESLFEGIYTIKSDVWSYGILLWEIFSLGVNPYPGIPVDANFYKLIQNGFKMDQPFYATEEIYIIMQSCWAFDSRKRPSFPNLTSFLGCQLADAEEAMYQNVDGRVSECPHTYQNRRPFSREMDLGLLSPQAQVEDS
Excerpt: FIG. 1: Evaluation of epitope specificity and internalization capability of anti-FLT3 monoclonal antibodies. (A) Affinity of seven anti-FLT3 monoclonal antibody (mab) clones to recombinant human FLT3 measured in enzyme-linked immunosorbent assay (ELISA) normalized to the binding of the antibodies to BSA control. […] (B) Schematic FLT3 receptor. Black arrows indicate common mutations and blue arrows indicate the three identified epitopes of seven anti-FLT3 antibodies analyzed in linear epitope mapping by PEPperPRINT. Figure was created with BioRender.com. (C) Binding and temperature induced internalization of anti-FLT3 antibodies in Ba/F3 cells expressing human wildtype FLT3. Internalization was induced by incubation for 30 min at 37° C. (grey) compared to 4° C. (black). Remaining surface-bound antibody was detected in flow cytometry. MFI was normalized to control human IgG1 binding. MFI=mean fluorescence intensity. […] (D) Cell surface binding of 20D9 mab or control human IgG1 antibody to Ba/F3 cells stably expressing pMIY (Ba/F3-pMIY) empty vector (ev), human wildtype (hFLT3 wt) or ITD mutant human FLT3 (hFLT3ITD) was measured in flow cytometry. Mean±s.d. of n=3. (E) Temperature induced internalization of 4B12 mab in MOLM-13 (FLT3 positive) cells after 30 min incubation at 37° C. compared to 4° C. and HL-60 (FLT3 negative) after 37° C. incubation assessed in immunofluorescence staining. Red=FLT3 staining by 4B12, Green=membrane staining by Vybrant DiO, Blue=nuclear staining by DAPI. Scale bar 5 μm. Representative pictures are shown. (F) Cell surface binding of 20D9 mab or control hIgG1 antibody to Ba/F3-pMIY ev, hFLT3 wt, murine (mFLT3 wt) or cynomolgues monkey FLT3 (cynoFLT3 wt) was measured in flow cytometry. Mean±s.d. of n=3. (G) Cell surface binding of 20D9 mab or control hIgG1 antibody to Ba/F3-PMIY ev, hFLT3 wt or epitope mutant FLT3 (hFLT3/S50P/P54R) measured in flow cytometry. Mean±s.d. of n=3. (H) Cell surface binding of 20D9 mab or control hIgG1 antibody to Ba/F3-PMIY ev, hFLT3 wt or human CD64 (hCD64) measured in flow cytometry. Mean±s.d. of n=3. […]

[2] = test system: MOLM-13 (FLT3 positive) cells; assay: Temperature induced internalization in MOLM-13, flow cytometry; assay type: cell-based, human; conditions: 30 min at 37° C. compared to 4° C.
Method: For antibody binding studies, cells were stained on ice with primary mouse, rat or human anti-FLT3 antibodies (in house) and secondary antibody Goat F(ab′)2 Anti-Human Ig-PE (2012-09), Goat Anti-Mouse IgG (H+L)-PE (1032-09) or Goat Anti-Rat IgG (H+L)-PE (3052-09) purchased from Southern Biotech. For internalization experiments, cells incubated with anti-FLT3 antibodies were washed and incubated for 30 min at 4° C. or 37° C. followed by staining with secondary antibody.

recombinant human FLT3 = molecular target: T2, recombinant human FLT3 (Homo sapiens, UniProt P36888); assay: ELISA affinity to recombinant human FLT3; assay type: binding; conditions: chimeric Ab clones
T2 construct: purchased Sino Biological 10445-H08H
T2 sequence (P36888 27-541 limits assumed): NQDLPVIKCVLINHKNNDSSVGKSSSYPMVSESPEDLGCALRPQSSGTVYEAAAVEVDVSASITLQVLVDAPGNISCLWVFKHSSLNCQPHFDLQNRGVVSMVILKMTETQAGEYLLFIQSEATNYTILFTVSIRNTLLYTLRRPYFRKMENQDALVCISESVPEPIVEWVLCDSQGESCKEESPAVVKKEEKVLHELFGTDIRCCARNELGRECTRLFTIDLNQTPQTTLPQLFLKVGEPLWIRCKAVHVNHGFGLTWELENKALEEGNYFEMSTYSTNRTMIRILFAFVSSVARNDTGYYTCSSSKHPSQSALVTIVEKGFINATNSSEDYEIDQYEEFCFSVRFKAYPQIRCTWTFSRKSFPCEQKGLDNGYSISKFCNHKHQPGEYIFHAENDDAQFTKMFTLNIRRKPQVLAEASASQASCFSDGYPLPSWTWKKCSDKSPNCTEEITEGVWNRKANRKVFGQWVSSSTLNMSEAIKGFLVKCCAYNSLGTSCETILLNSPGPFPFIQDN
Excerpt: FIG. 1: Evaluation of epitope specificity and internalization capability of anti-FLT3 monoclonal antibodies. (A) Affinity of seven anti-FLT3 monoclonal antibody (mab) clones to recombinant human FLT3 measured in enzyme-linked immunosorbent assay (ELISA) normalized to the binding of the antibodies to BSA control. […] (B) Schematic FLT3 receptor. Black arrows indicate common mutations and blue arrows indicate the three identified epitopes of seven anti-FLT3 antibodies analyzed in linear epitope mapping by PEPperPRINT. Figure was created with BioRender.com. (C) Binding and temperature induced internalization of anti-FLT3 antibodies in Ba/F3 cells expressing human wildtype FLT3. Internalization was induced by incubation for 30 min at 37° C. (grey) compared to 4° C. (black). Remaining surface-bound antibody was detected in flow cytometry. MFI was normalized to control human IgG1 binding. MFI=mean fluorescence intensity. […] (D) Cell surface binding of 20D9 mab or control human IgG1 antibody to Ba/F3 cells stably expressing pMIY (Ba/F3-pMIY) empty vector (ev), human wildtype (hFLT3 wt) or ITD mutant human FLT3 (hFLT3ITD) was measured in flow cytometry. Mean±s.d. of n=3. (E) Temperature induced internalization of 4B12 mab in MOLM-13 (FLT3 positive) cells after 30 min incubation at 37° C. compared to 4° C. and HL-60 (FLT3 negative) after 37° C. incubation assessed in immunofluorescence staining. Red=FLT3 staining by 4B12, Green=membrane staining by Vybrant DiO, Blue=nuclear staining by DAPI. Scale bar 5 μm. Representative pictures are shown. (F) Cell surface binding of 20D9 mab or control hIgG1 antibody to Ba/F3-pMIY ev, hFLT3 wt, murine (mFLT3 wt) or cynomolgues monkey FLT3 (cynoFLT3 wt) was measured in flow cytometry. Mean±s.d. of n=3. (G) Cell surface binding of 20D9 mab or control hIgG1 antibody to Ba/F3-PMIY ev, hFLT3 wt or epitope mutant FLT3 (hFLT3/S50P/P54R) measured in flow cytometry. Mean±s.d. of n=3. (H) Cell surface binding of 20D9 mab or control hIgG1 antibody to Ba/F3-PMIY ev, hFLT3 wt or human CD64 (hCD64) measured in flow cytometry. Mean±s.d. of n=3.
Maxisorp plates were coated with human recombinant FLT3 protein (10445-H08H, Sino Biological). Chimeric (20D9) or humanized anti-FLT3 monoclonal antibodies (in house) and secondary alkaline phosphatase conjugated rabbit anti-human IgG antibody (309-055-008, Jackson Immunoresearch) were used. For detection, Attophos Fluorescent Substrate System (S1000, Promega) was applied. The fluorescence was read with excitation of 405 nm and emission at 500-550 nm. The calculation of the dissociation constant KD was performed using GraphPad Prism version 9.4.0.

Molecule	Internalization in Ba/F3-FLT3 [1] [%]	Internalization in MOLM-13 [2] [%]	Affinity Kd (recombinant human FLT3) [µg/mL]
B1	26	12	3.981
B2	–	–	0.1339
